Results from patent US20180291335A1, “MODIFIED POLYNUCLEOTIDES FOR ALTERING CELL PHENOTYPE” (ModernaTX, Inc., priority 2012, published 2018).

Tests used:
Type in all cases: cell-based, human
[1] = tested on: peripheral blood mononuclear cells (PBMC); assay: In vitro PBMC study, percent modification: G-CSF expression by ELISA; settings: for G-CSF Expression: 22 hours after transfection; for Average G-CSF: PBMC, average of three donors
Protocol: 480 ng of G-CSF mRNA modified with 5-methylcytosine (5mC) and pseudouridine (pseudoU) or unmodified G-CSF mRNA was transfected with 0.4 uL of Lipofectamine 2000 into peripheral blood mononuclear cells (PBMC) from three normal blood donors (D1, D2, and D3). […] The supernatant was harvested and run by ELISA 22 hours after transfection to determine the protein expression. The expression of IFN-alpha and TNF-alpha may be a secondary effect from the transfection of the G-CSF mRNA.

IFN-alpha = assay: In vitro PBMC study, percent modification: IFN-alpha expression by ELISA; settings: for Average IFN-a: average of three donors; for G-CSF/IFN-alpha (PC ratio): protein/cytokine ratio from averages
Protocol: (§1) The supernatant was harvested and run by ELISA 22 hours after transfection to determine the protein expression.

TNF-alpha = assay: In vitro PBMC study, percent modification: TNF-alpha expression by ELISA; settings: for Average TNF-a: average of three donors; for G-CSF/TNF-alpha (PC ratio): protein/cytokine ratio from averages
Protocol: as §1

[2] = PBMC donor D1, 22 hours after transfection
[3] = PBMC donor D2, 22 hours after transfection
[4] = PBMC donor D3, 22 hours after transfection
[5] = PBMC, versus natural G-CSF mRNA

Molecule | G-CSF Expression ([1]; PBMC donor D1, 480 ng mRNA) | G-CSF Expression ([1]; PBMC donor D2, 480 ng mRNA) | G-CSF Expression ([1]; PBMC donor D3, 480 ng mRNA) | IFN-alpha Expression (IFN-alpha; [2]) | IFN-alpha Expression (IFN-alpha; [3]) | IFN-alpha Expression (IFN-alpha; [4]) | Average IFN-a (IFN-alpha; PBMC) | G-CSF/IFN-alpha (PC ratio) (IFN-alpha; PBMC) | better ratio of protein/cytokine production than without any modification, IFN-alpha (IFN-alpha; [5]) | Average G-CSF [1] | TNF-alpha Expression (TNF-alpha; [2]) | TNF-alpha Expression (TNF-alpha; [3]) | TNF-alpha Expression (TNF-alpha; [4]) | Average TNF-a (TNF-alpha; PBMC) | G-CSF/TNF-alpha (PC ratio) (TNF-alpha; PBMC) | better ratio of protein/cytokine production than without any modification, TNF-alpha (TNF-alpha; [5])
Luciferase: control Luciferase mRNA (SEQ ID NO: 409, Cap1) fully modified 5meC and pseudoU [reference compound] | 90.2 pg/mL | 0.0 pg/mL | 22.1 pg/mL |  |  |  |  |  |  |  |  |  |  |  |  | 
100% modification: G-CSF mRNA (SEQ ID NO: 408, Cap1) completely modified with 5mC and pseudoU (nucleic acid, Cap1; full 5mC and pseudoU modification; Description of Artificial Sequence: Synthetic Transcript Sequence) GGGAAAUAAGAGAGAAAAGAAGAGUAAGAAGAAAUAUAAGAGCCACCAUGGCCGGUCCCGCGACCCAAAGCCCCAUGAAACUUAUGGCCCUGCAGUUGCUGCUUUGGCACUCGGCCCUCUGGACAGUCCAAGAAGCGACUCCUCUCGGACCUGCCUCAUCGUUGCCGCAGUCAUUCCUUUUGAAGUGUCUGGAGCAGGUGCGAAAGAUUCAGGGCGAUGGAGCCGCACUCCAAGAGAAGCUCUGCGCGACAUACAAACUUUGCCAUCCCGAGGAGCUCGUACUGCUCGGGCACAGCUUGGGGAUUCCCUGGGCUCCUCUCUCGUCCUGUCCGUCGCAGGCUUUGCAGUUGGCAGGGUGCCUUUCCCAGCUCCACUCCGGUUUGUUCUUGUAUCAGGGACUGCUGCAAGCCCUUGAGGGAAUCUCGCCAGAAUUGGGCCCGACGCUGGACACGUUGCAGCUCGACGUGGCGGAUUUCGCAACAACCAUCUGGCAGCAGAUGGAGGAACUGGGGAUGGCACCCGCGCUGCAGCCCACGCAGGGGGCAAUGCCGGCCUUUGCGUCCGCGUUUCAGCGCAGGGCGGGUGGAGUCCUCGUAGCGAGCCACCUUCAAUCAUUUUUGGAAGUCUCGUACCGGGUGCUGAGACAUCUUGCGCAGCCGUGAAGCGCUGCCUUCUGCGGGGCUUGCCUUCUGGCCAUGCCCUUCUUCUCUCCCUUGCACCUGUACCUCUUGGUCUUUGAAUAAAGCCUGAGUAGGAAG | 1968.9 pg/mL | 2595.6 pg/mL | 2835.7 pg/mL | 336.5 pg/mL | 78.0 pg/mL | 46.4 pg/mL | 153 pg/mL | 16 | 100 fold | 2466 pg/mL | 115.0 pg/mL | 15.0 pg/mL | 11.1 pg/mL | 47 pg/mL | 52 | 27 fold
75% modification: G-CSF mRNA (SEQ ID NO: 408) partially modified with 5mC and pseudoU, 75% modification (nucleic acid, 75% 5mC/pseudoU modified; Description of Artificial Sequence: Synthetic Transcript Sequence) GGGAAAUAAGAGAGAAAAGAAGAGUAAGAAGAAAUAUAAGAGCCACCAUGGCCGGUCCCGCGACCCAAAGCCCCAUGAAACUUAUGGCCCUGCAGUUGCUGCUUUGGCACUCGGCCCUCUGGACAGUCCAAGAAGCGACUCCUCUCGGACCUGCCUCAUCGUUGCCGCAGUCAUUCCUUUUGAAGUGUCUGGAGCAGGUGCGAAAGAUUCAGGGCGAUGGAGCCGCACUCCAAGAGAAGCUCUGCGCGACAUACAAACUUUGCCAUCCCGAGGAGCUCGUACUGCUCGGGCACAGCUUGGGGAUUCCCUGGGCUCCUCUCUCGUCCUGUCCGUCGCAGGCUUUGCAGUUGGCAGGGUGCCUUUCCCAGCUCCACUCCGGUUUGUUCUUGUAUCAGGGACUGCUGCAAGCCCUUGAGGGAAUCUCGCCAGAAUUGGGCCCGACGCUGGACACGUUGCAGCUCGACGUGGCGGAUUUCGCAACAACCAUCUGGCAGCAGAUGGAGGAACUGGGGAUGGCACCCGCGCUGCAGCCCACGCAGGGGGCAAUGCCGGCCUUUGCGUCCGCGUUUCAGCGCAGGGCGGGUGGAGUCCUCGUAGCGAGCCACCUUCAAUCAUUUUUGGAAGUCUCGUACCGGGUGCUGAGACAUCUUGCGCAGCCGUGAAGCGCUGCCUUCUGCGGGGCUUGCCUUCUGGCCAUGCCCUUCUUCUCUCCCUUGCACCUGUACCUCUUGGUCUUUGAAUAAAGCCUGAGUAGGAAG | 566.7 pg/mL | 631.4 pg/mL | 659.5 pg/mL | 339.6 pg/mL | 107.6 pg/mL | 160.9 pg/mL | 202 pg/mL | 3.1 |  | 619 pg/mL | 107.4 pg/mL | 21.7 pg/mL | 11.8 pg/mL | 47 pg/mL | 13 | 
0% modification: unmodified G-CSF mRNA (SEQ ID NO: 408), not modified with 5mC and pseudoU (nucleic acid, Description of Artificial Sequence: Synthetic Transcript Sequence) GGGAAAUAAGAGAGAAAAGAAGAGUAAGAAGAAAUAUAAGAGCCACCAUGGCCGGUCCCGCGACCCAAAGCCCCAUGAAACUUAUGGCCCUGCAGUUGCUGCUUUGGCACUCGGCCCUCUGGACAGUCCAAGAAGCGACUCCUCUCGGACCUGCCUCAUCGUUGCCGCAGUCAUUCCUUUUGAAGUGUCUGGAGCAGGUGCGAAAGAUUCAGGGCGAUGGAGCCGCACUCCAAGAGAAGCUCUGCGCGACAUACAAACUUUGCCAUCCCGAGGAGCUCGUACUGCUCGGGCACAGCUUGGGGAUUCCCUGGGCUCCUCUCUCGUCCUGUCCGUCGCAGGCUUUGCAGUUGGCAGGGUGCCUUUCCCAGCUCCACUCCGGUUUGUUCUUGUAUCAGGGACUGCUGCAAGCCCUUGAGGGAAUCUCGCCAGAAUUGGGCCCGACGCUGGACACGUUGCAGCUCGACGUGGCGGAUUUCGCAACAACCAUCUGGCAGCAGAUGGAGGAACUGGGGAUGGCACCCGCGCUGCAGCCCACGCAGGGGGCAAUGCCGGCCUUUGCGUCCGCGUUUCAGCGCAGGGCGGGUGGAGUCCUCGUAGCGAGCCACCUUCAAUCAUUUUUGGAAGUCUCGUACCGGGUGCUGAGACAUCUUGCGCAGCCGUGAAGCGCUGCCUUCUGCGGGGCUUGCCUUCUGGCCAUGCCCUUCUUCUCUCCCUUGCACCUGUACCUCUUGGUCUUUGAAUAAAGCCUGAGUAGGAAG | 194.8 pg/mL | 182.0 pg/mL | 183.3 pg/mL | 1421.6 pg/mL | 810.5 pg/mL | 1260.5 pg/mL | 1164 pg/mL | 0.16 |  | 186 pg/mL | 154.6 pg/mL | 96.8 pg/mL | 45.9 pg/mL | 99 pg/mL | 1.9 | 
